Results published in patent US20210380703A1.
Where a chain is given by its changes, count along the chain named.

B1: 368_A05 (antibody, V domains shown)
VH: EVQLLESGGGLVQPGGSLRLSCAASGFTFSSYSMNWVRQAPGKGLEWVAGINYNSGYTGYADSVKGRFTISRDNSKNTLYLQMNSLRAEDTAVYYCARSANWHDTALDYWGQGTLVTVSS
VL: DIQMTQSPSSLSASVGDRVTITCRASQSIVSYLNWYQQKPGKAPKLVIYAATSRASGVPSRFSGSGSGTDFTLTISSLQPEDFATYYCQQSYDSPLTFGGGTKVEIK
B2: 368_E04 (antibody, V domains shown)
VH: B1 VH with G50N
VL: B1 VL with V30L, L33V, V47L, A55H, S94N
B3: 369_C03 (antibody, V domains shown)
VH: B1 VH with S33G, A49S, G50N, S55G, T58K, G59S
VL: B1 VL with V30L, S31T
B4: 368_D05 (antibody, V domains shown)
VH: B1 VH with A49S, S55G, G59S
VL: B1 VL with V30L, S31T, Y92D
B5: 368_G01 (antibody, V domains shown)
VH: B1 VH with S31D, S33G, N35H, G50S, G59S
VL: B1 VL with V30L, S31T, D93N, S94L
B6: 369_E02 (antibody, V domains shown)
VH: B1 VH with S30D, S33G, A49S, G50N, S55G
VL: B1 VL with L33V, V47L, A51T, A55H, S94N
B7: 368_F11 (antibody, V domains shown)
VH: B1 VH with S31D, S33G, A49S, S55G, G59S, A106H
VL: B1 VL with L33V, D93N, S94N
B8: 368_E07 (antibody, V domains shown)
VH: B1 VH with S33G, S55G, G59S, R98K
VL: B1 VL with V30L, V47L, A51V, D93E, S94N
B9: 368_E01 (antibody, V domains shown)
VH: B1 VH with G50S, A106H
VL: B1 VL with V30L, V47L, A51V, A55H, D93S, S94L
B10: 368_A09 (antibody, V domains shown)
VH: B1 VH with S30D, A49S, S55G, G59S, A106H
VL: B1 VL with V30L, L33V, V47L, A51V
B11: 369_F03 (antibody, V domains shown)
VH: B1 VH with S31D, S33G, A49S, G59S
VL: B1 VL with L33V, V47L, R54L
B12: 368_C05 (antibody, V domains shown)
VH: B1 VH with S30D, S33G, A49S, G59S
VL: B1 VL with V30L, Y92D, D93S, S94N
B13: 368_F03 (antibody, V domains shown)
VH: B1 VH with S30D, R98K
VL: B1 VL with V30I, A55H
B14: 368_D01 (antibody, V domains shown)
VH: B1 VH with S33G, N35H, G50N, S55G, G59S
VL: B1 VL with V30L, Y92D, D93S, S94T
B15: 369_D02 (antibody, V domains shown)
VH: B1 VH with S31D, A49S, G50N
VL: B1 VL with V30L, A51V, S94T
B16: 369_E11 (antibody, V domains shown)
VH: B1 VH with S33G, A49S, G50N, S55G, G59S
VL: B1 VL with V30I, V47L, R54L, S94T
B17: 369_D12 (antibody, V domains shown)
VH: B1 VH with S30D, G59S
VL: B1 VL with V30L, V47L, R54L, S94T
B18: 369_E12 (antibody, V domains shown)
VH: B1 VH with S33G, N35H, G50S, G59S
VL: B1 VL with V30I, V47L, D93E
B19: 368_D04 (antibody, V domains shown)
VH: B1 VH with S33G, A49S, S55G, T58K, G59S
VL: B1 VL with V30S, S31T, L33V, A51V, A55H
B20: 369_D04 (antibody, V domains shown)
VH: B1 VH with S30D, S33G, A49S, S55G, G59S
VL: B1 VL with V30L, L33V, D93N, S94L
B21: 369_A02 (antibody, V domains shown)
VH: B1 VH with A106H
VL: B1 VL with V30L, L33V, V47L, S94L
B22: 368_H04 (antibody, V domains shown)
VH: B1 VH with T58K, R98K, A106H
VL: B1 VL with L33V, V47L
B23: 369_F06 (antibody, V domains shown)
VH: B1 VH with S30D, S31D, S55G, T58K
VL: B1 VL with L33V
B24: 368_A07 (antibody, V domains shown)
VH: B1 VH with G59S, A106H
VL: B1 VL with V30L, S31T, A51T, Y92N, D93E, S94L
B25: 368_D11 (antibody, V domains shown)
VH: B1 VH with S30D, S31D, S33G, A49S, G50N, S55G, T58K, G59S
VL: B1 VL with V30L, S31T, S94L
B26: 369_B01 (antibody, V domains shown)
VH: B1 VH with A49S, S55G, G59S
VL: B1 VL with V30L, V47L, A51V, D93E, S94N
B27: 369_C02 (antibody, V domains shown)
VH: B1 VH with S30D, A49S, G50N, S55G, T58K, G59S
VL: B1 VL with V30L, S31T, D93E, S94L
B28: 369_F02 (antibody, V domains shown)
VH: B1 VH with S33G, G50S, T58K, G59S
VL: B1 VL with S94T
B29: 369_F10 (antibody, V domains shown)
VH: B1 VH with S30D, S33G, A49S, G50N, T58K, G59S
VL: B1 VL with S31T, V47L, A51V, S94L
B30: 369_F01 (antibody, V domains shown)
VH: B1 VH with S33G, A49S, S55G, T58K, G59S
VL: B1 VL with V30L, S31T, L33V, V47L, D93E, S94L
B31: 369_C04 (antibody, V domains shown)
VH: B1 VH with A49S, G50N, S55G
VL: B1 VL with V30L, S31T, L33V, V47L, A50T, A51T, R54L, A55H, D93N, S94N
B32: 368_G12 (antibody, V domains shown)
VH: B1 VH with S33G, G50S
VL: B1 VL with V30S, L33V, A51V, D93E, S94T
B33: 368_B01 (antibody, V domains shown)
VH: B1 VH with S33G, A49S, T58K, G59S
VL: B1 VL with V30S, V47L, D93E, S94T
B34: 368_E06 (antibody, V domains shown)
VH: B1 VH with S31D, S33G, N35H, A49S, S55G
VL: B1 VL with V30L, A50G

molecular target: Human Fc (human); test: ELISA, negative control

Row | optical density | Binder
1 | 0.285 OD | B1
2 | 0.32 OD | B2
3 | 0.323 OD | B3
4 | 0.282 OD | B4
5 | 0.431 OD | B5
6 | 0.365 OD | B6
7 | 0.338 OD | B7
8 | 0.251 OD | B8
9 | 0.392 OD | B9
10 | 0.277 OD | B10
11 | 0.389 OD | B11
12 | 0.246 OD | B12
13 | 0.323 OD | B13
14 | 0.319 OD | B14
15 | 0.407 OD | B15
16 | 0.343 OD | B16
17 | 0.425 OD | B17

Row | optical density | Binder
18 | 0.452 OD | B18
19 | 0.338 OD | B19
20 | 0.435 OD | B20
21 | 0.383 OD | B21
22 | 0.319 OD | B22
23 | 0.353 OD | B23
24 | 0.261 OD | B24
25 | 0.297 OD | B25
26 | 0.487 OD | B26
27 | 0.369 OD | B27
28 | 0.478 OD | B28
29 | 0.361 OD | B29
30 | 0.554 OD | B30
31 | 0.248 OD | B31
32 | 0.341 OD | B32
33 | 0.365 OD | B33
34 | 0.325 OD | B34
